The record followed here is patent US20230365714A1 (published 2023).

Numbering of substitutions follows the chain as printed. Numbers in names are those of the source.

Sequences and labels used below:
B1: bsIgG1-huCD3-H101G-FEAL×chROR2-A-FEAR (bispecific antibody)
heavy 1: not shown
light 1: not shown
heavy 2: QSVEESGGRLVTPGTPLTLTCTVSGFSLSSYSMSWVRQAPGKGLEWIGVIYVNSKTWYANWAKGRFTISKTSTTVDLKITSPTTEDTATYFCARGDAGYTTNSWLWGPGTLVTVSSASTKGPSVFPLAPSSKSTSGGTAALGCLVKDYFPEPVTVSWNSGALTSGVHTFPAVLQSSGLYSLSSVVTVPSSSLGTQTYICNVNHKPSNTKVDKRVEPKSCDKTHTCPPCPAPEFEGGPSVFLFPPKPKDTLMISRTPEVTCVVVAVSHEDPEVKFNWYVDGVEVHNAKTKPREEQYNSTYRVVSVLTVLHQDWLNGKEYKCKVSNKALPAPIEKTISKAKGQPREPQVYTLPPSREEMTKNQVSLTCLVKGFYPSDIAVEWESNGQPENNYKTTPPVLDSDGSFFLYSRLTVDKSRWQQGNVFSCSVMHEALHNHYTQKSLSLSPGK
light 2: AFELTQTPASVSEPVGGTVTIKCQASESIDNYCSWYQQKPGQPPKLLIYQAFKLASGVPSRFRGSGSGTQFTLTISDLESDDAATYYCQSYSGISTTAFGGGTEVVVKRTVAAPSVFIFPPSDEQLKSGTASVVCLLNNFYPREAKVQWKVDNALQSGNSQESVTEQDSKDSTYSLSSTLTLSKADYEKHKVYACEVTHQGLSSPVTKSFNRGEC
B2: IgG1-ROR2-A-HC6LC3-FEAR (antibody)
heavy: EVQLLESGGGLVQPGGSLRLSCTVSGFSLSSYSMSWVRQAPGKGLEWIGVIYVNSKTWYADSVKGRFTISKDNSKNTVYLQMNSLRAEDTATYYCARGDAGYTTNSWLWGQGTLVTVSSASTKGPSVFPLAPSSKSTSGGTAALGCLVKDYFPEPVTVSWNSGALTSGVHTFPAVLQSSGLYSLSSVVTVPSSSLGTQTYICNVNHKPSNTKVDKRVEPKSCDKTHTCPPCPAPEFEGGPSVFLFPPKPKDTLMISRTPEVTCVVVAVSHEDPEVKFNWYVDGVEVHNAKTKPREEQYNSTYRVVSVLTVLHQDWLNGKEYKCKVSNKALPAPIEKTISKAKGQPREPQVYTLPPSREEMTKNQVSLTCLVKGFYPSDIAVEWESNGQPENNYKTTPPVLDSDGSFFLYSRLTVDKSRWQQGNVFSCSVMHEALHNHYTQKSLSLSPGK
VL: AFELTQSPSSLSASVGDRVTITCQASESIDNYLSWYQQKPGKAPKLLIYQAFKLASGVPSRFRGSGSGTDFTLTISSLQPEDFATYYCQSYSGISTTAFGGGTKVEIK
notes: Humanized variant
B3: IgG1-ROR2-A-HC1LC2-FEAR (antibody, V domains shown)
VH: QSVLESGGGLVQPGGSLRLSCTVSGFSLSSYSMSWVRQAPGKGLEWIGVIYVNSKTWYANWAKGRFTISKTSTTVDLKITSPTAEDTATYFCARGDAGYTTNSWLWGQGTLVTVSS
VL: B2 VL with P80S, K104E, E106V
notes: Humanized variant
B4: IgG1-ROR2-A-HC7LC1-FEAR (antibody, V domains shown)
VH: EVQLLESGGGLVQPGGSLRLSCAASGFSLSSYSMSWVRQAPGKGLEWIGVIYVNSKTWYADSVKGRFTISKDNSKNTVYLQMNSLRAEDTATYYCARGDAGYTTNSWLWGQGTLVTVSS
VL: B2 VL with L33C, P80S, K104E, E106V
notes: Humanized variant
B5: IgG1-ROR2-A-HC2LC3-FEAR (antibody)
heavy: QSVLESGGGLVQPGGSLRLSCTVSGFSLSSYSMSWVRQAPGKGLEWIGVIYVNSKTWYANWAKGRFTISKTSTTVYLQMNSLRAEDTATYFCARGDAGYTTNSWLWGQGTLVTVSSASTKGPSVFPLAPSSKSTSGGTAALGCLVKDYFPEPVTVSWNSGALTSGVHTFPAVLQSSGLYSLSSVVTVPSSSLGTQTYICNVNHKPSNTKVDKRVEPKSCDKTHTCPPCPAPEFEGGPSVFLFPPKPKDTLMISRTPEVTCVVVAVSHEDPEVKFNWYVDGVEVHNAKTKPREEQYNSTYRVVSVLTVLHQDWLNGKEYKCKVSNKALPAPIEKTISKAKGQPREPQVYTLPPSREEMTKNQVSLTCLVKGFYPSDIAVEWESNGQPENNYKTTPPVLDSDGSFFLYSRLTVDKSRWQQGNVFSCSVMHEALHNHYTQKSLSLSPGK
VL: B2 VL
notes: Humanized variant
B6: IgG1-ROR2-A-HC2LC1-FEAR (antibody, V domains shown)
VH: B3 VH with D76Y, K78Q, I79M, T80N, P82L, T83R
VL: B2 VL with L33C, P80S, K104E, E106V
notes: Humanized variant
B7: IgG1-ROR2-A-HC7LC4-FEAR (antibody)
heavy: B2 heavy with T23A, V24A
VL: B2 VL with A1D, F2I, E3Q
notes: Humanized variant
B8: IgG1-ROR2-A-HC1LC4-FEAR (antibody)
heavy: B5 heavy with Y76D, Q78K, M79I, N80T, L82P, R83T
VL: B2 VL with A1D, F2I, E3Q
notes: Humanized variant
B9: IgG1-ROR2-A-HC2LC4-FEAR (antibody)
heavy: B5 heavy
VL: B2 VL with A1D, F2I, E3Q
notes: Humanized variant
B10: IgG1-ROR2-A-HC1LC3-FEAR (antibody)
heavy: B5 heavy with Y76D, Q78K, M79I, N80T, L82P, R83T
VL: B2 VL
notes: Humanized variant
B11: IgG1-ROR2-A-HC7LC3-FEAR (antibody)
heavy: B2 heavy with T23A, V24A
VL: B2 VL
notes: Humanized variant
B12: IgG1-ROR2-A-HC1LC1-FEAR (antibody, V domains shown)
VH: B3 VH
VL: B2 VL with L33C, P80S, K104E, E106V
notes: Humanized variant
B13: IgG1-ROR2-A-HC2LC2-FEAR (antibody, V domains shown)
VH: B3 VH with D76Y, K78Q, I79M, T80N, P82L, T83R
VL: B2 VL with P80S, K104E, E106V
notes: Humanized variant
B14: IgG1-ROR2-A-HC6LC4-FEAR (antibody)
heavy: B2 heavy
VL: B2 VL with A1D, F2I, E3Q
notes: Humanized variant

For one experiment, the target named is human (Homo sapiens) ROR2, full length, on cells (human, UniProt Q01974 34-943). The experiment can be described thus: cell-based or functional assay.
Sequence of human (Homo sapiens) ROR2, full length, on cells (Q01974 34-943 limits assumed): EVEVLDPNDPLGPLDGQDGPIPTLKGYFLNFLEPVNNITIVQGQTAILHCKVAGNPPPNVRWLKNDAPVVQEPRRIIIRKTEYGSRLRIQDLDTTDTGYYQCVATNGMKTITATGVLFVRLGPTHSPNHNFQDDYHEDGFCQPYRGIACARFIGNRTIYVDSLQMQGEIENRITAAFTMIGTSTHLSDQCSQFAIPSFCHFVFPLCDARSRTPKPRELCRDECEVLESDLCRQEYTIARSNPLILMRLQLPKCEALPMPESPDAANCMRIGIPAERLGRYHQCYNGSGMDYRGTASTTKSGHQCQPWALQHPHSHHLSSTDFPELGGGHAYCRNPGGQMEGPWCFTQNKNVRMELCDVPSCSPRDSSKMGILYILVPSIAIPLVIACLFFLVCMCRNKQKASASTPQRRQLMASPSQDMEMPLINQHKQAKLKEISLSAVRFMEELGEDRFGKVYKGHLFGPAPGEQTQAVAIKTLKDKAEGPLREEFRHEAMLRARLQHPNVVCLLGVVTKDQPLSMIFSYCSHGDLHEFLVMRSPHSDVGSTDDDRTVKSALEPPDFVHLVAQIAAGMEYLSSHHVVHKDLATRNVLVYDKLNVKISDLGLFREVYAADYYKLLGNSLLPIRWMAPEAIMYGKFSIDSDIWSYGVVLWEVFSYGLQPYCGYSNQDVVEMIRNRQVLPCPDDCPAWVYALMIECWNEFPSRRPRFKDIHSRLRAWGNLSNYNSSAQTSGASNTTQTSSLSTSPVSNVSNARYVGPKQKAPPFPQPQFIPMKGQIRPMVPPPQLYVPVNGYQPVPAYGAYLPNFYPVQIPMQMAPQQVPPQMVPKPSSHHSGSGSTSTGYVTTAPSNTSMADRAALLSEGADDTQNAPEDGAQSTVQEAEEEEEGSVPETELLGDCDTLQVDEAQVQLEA
Take B1: the “IC50 of T cell mediated cytotoxicity, 786-O cells, human T cells, E:T 8:1” value turned out to be 0.088 µg/mL; the “IC50 of T cell mediated cytotoxicity, Hela cells, human T cells, E:T 8:1” value turned out to be 0.424 µg/mL; the “IC50 of T cell mediated cytotoxicity, LCLC-103H cells, human T cells, E:T 8:1” value is 0.511 µg/mL; the “IC50 of T cell mediated cytotoxicity, NCI-H23 cells, human T cells, E:T 8:1” value was 0.58 µg/mL. In addition, the “IC50 of T cell mediated cytotoxicity, NCI-H1650 cells, human T cells, E:T 8:1” value is 0.693 µg/mL and the “IC50 of T cell mediated cytotoxicity, ZR-75-1 cells, human T cells, E:T 8:1” value came to 0.424 µg/mL.

The target in another experiment is T1, cynomolgus monkey ROR2 in which threonine at position 322 is replaced by methionine (ROR2mf-T322M) (cynomolgus monkey (Macaca fascicularis), UniProt Q01974 34-943 (human entry)).
T1 construct: also called RORmf-T322M
The experiment can be described thus: flow cytometry on CHO cells expressing ROR2mf-T322M.
As for B1, the binding result is “binds”.

In the next experiment the target is T2, his-tagged ROR2 extracellular domain (ROR2-ECD, G&P Biosciences, cat. no. FCL0192) (human, UniProt Q01974 34-403).
T2 construct: Bought protein; also called human ROR2-ECD; recombinant human ROR2-ECD; not shown: his tag
T2 sequence (Q01974 34-403): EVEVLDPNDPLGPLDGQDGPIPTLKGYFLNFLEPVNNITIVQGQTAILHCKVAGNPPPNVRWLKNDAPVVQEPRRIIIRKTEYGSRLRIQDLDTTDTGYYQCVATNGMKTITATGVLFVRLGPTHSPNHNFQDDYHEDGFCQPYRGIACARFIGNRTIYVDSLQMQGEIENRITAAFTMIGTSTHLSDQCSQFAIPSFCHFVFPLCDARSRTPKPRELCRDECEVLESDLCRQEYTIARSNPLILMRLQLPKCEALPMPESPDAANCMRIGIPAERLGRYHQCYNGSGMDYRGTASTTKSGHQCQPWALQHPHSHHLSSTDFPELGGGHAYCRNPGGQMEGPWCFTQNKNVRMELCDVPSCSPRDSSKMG
As to the kind of experiment: BLI (Octet), antibody on anti-human IgG Fc sensor, ROR2-ECD 1.56-100 nM as analyte. For orientation: Biolayer interferometry detects binding as a change in optical thickness at a sensor tip.
For orientation: Kd means the concentration at which binding is half-saturated. The koff is the rate constant with which the complex falls apart. As usually defined, the kon is the second-order rate constant of association. Regarding B2, the Kd turned out to be 4 nM, the koff stood at 0.0023 s⁻¹ and the kon was determined as 560000 M⁻¹ s⁻¹.
Taken in the same sequence, the figures for B3 were 1.9 nM, 0.0011 s⁻¹ and 590000 M⁻¹ s⁻¹.
For B4 the same measures were 3.8 nM, 0.0021 s⁻¹ and 540000 M⁻¹ s⁻¹.
On to B5, for which the Kd turned out to be 2 nM, the koff amounted to 0.001 s⁻¹ and the kon was found to be 490000 M⁻¹ s⁻¹.
Taken in the same sequence, the figures for B6 were 1.7 nM, 0.00085 s⁻¹ and 510000 M⁻¹ s⁻¹.
Taken in the same sequence, the figures for B7 were 5.6 nM, 0.0032 s⁻¹ and 570000 M⁻¹ s⁻¹.
Taken in the same sequence, the figures for B8 were 2 nM, 0.0012 s⁻¹ and 560000 M⁻¹ s⁻¹.
Regarding B9, the Kd worked out at 2.2 nM, the koff is 0.0011 s⁻¹ and the kon stood at 510000 M⁻¹ s⁻¹.
B10 registered a Kd of 1.8 nM, an off-rate (koff) of 0.00097 s⁻¹ and a kon of 550000 M⁻¹ s⁻¹.
In turn, B11 came in with a Kd of 5.1 nM, a koff of 0.0028 s⁻¹ and a kon of 550000 M⁻¹ s⁻¹.
For B12 the same measures were 1.6 nM, 0.00096 s⁻¹ and 590000 M⁻¹ s⁻¹.
For B13 the same measures were 1.8 nM, 0.00089 s⁻¹ and 510000 M⁻¹ s⁻¹.
For B14 the same measures were 4.4 nM, 0.0025 s⁻¹ and 570000 M⁻¹ s⁻¹.
